In PMC12816604, “Structural basis of double-stranded RNA recognition by the J2 monoclonal antibody”:

Legend:
[1] = system: J2 IgG HC A30P, PDB:9OJV_1+PDB:9OJV_2; experiment: BLI steady state; conditions: 100 mM KCl; kinetic Kd 28 ± 14 nM; BLI: 25 mM Tris-HCl pH 7.5, 100-400 mM KCl (per row), 2 mM MgCl2, 25 C, IgG immobilized on Protein A; FP: 25 mM Tris-HCl pH 7.5, 100 mM KCl, 2 mM MgCl2, 21 C
[2] = system: J2 IgG HC Y50F, PDB:9OJV_1+PDB:9OJV_2; experiment: BLI steady state; conditions: 100 mM KCl; kinetic Kd 94 ± 49 nM; BLI: 25 mM Tris-HCl pH 7.5, 100-400 mM KCl (per row), 2 mM MgCl2, 25 C, IgG immobilized on Protein A; FP: 25 mM Tris-HCl pH 7.5, 100 mM KCl, 2 mM MgCl2, 21 C
[3] = system: J2 IgG HC Y52F, PDB:9OJV_1+PDB:9OJV_2; experiment: BLI steady state; conditions: 100 mM KCl; kinetic Kd 210 ± 20 nM; BLI: 25 mM Tris-HCl pH 7.5, 100-400 mM KCl (per row), 2 mM MgCl2, 25 C, IgG immobilized on Protein A; FP: 25 mM Tris-HCl pH 7.5, 100 mM KCl, 2 mM MgCl2, 21 C
[4] = system: J2 IgG HC Y54A, PDB:9OJV_1+PDB:9OJV_2; experiment: BLI steady state; conditions: 100 mM KCl; kinetic Kd 270 ± 10 nM; BLI: 25 mM Tris-HCl pH 7.5, 100-400 mM KCl (per row), 2 mM MgCl2, 25 C, IgG immobilized on Protein A; FP: 25 mM Tris-HCl pH 7.5, 100 mM KCl, 2 mM MgCl2, 21 C
[5] = system: J2 IgG HC Y54F, PDB:9OJV_1+PDB:9OJV_2; experiment: BLI steady state; conditions: 100 mM KCl; kinetic Kd 250 ± 40 nM; BLI: 25 mM Tris-HCl pH 7.5, 100-400 mM KCl (per row), 2 mM MgCl2, 25 C, IgG immobilized on Protein A; FP: 25 mM Tris-HCl pH 7.5, 100 mM KCl, 2 mM MgCl2, 21 C
[6] = system: J2 IgG LC Y31A, PDB:9OJV_1+PDB:9OJV_2; experiment: BLI steady state; conditions: 100 mM KCl; kinetic Kd 207 ± 21 nM; BLI: 25 mM Tris-HCl pH 7.5, 100-400 mM KCl (per row), 2 mM MgCl2, 25 C, IgG immobilized on Protein A; FP: 25 mM Tris-HCl pH 7.5, 100 mM KCl, 2 mM MgCl2, 21 C
[7] = system: J2 IgG LC Y31F, PDB:9OJV_1+PDB:9OJV_2; experiment: BLI steady state; conditions: 100 mM KCl; kinetic Kd 130 ± 20 nM; BLI: 25 mM Tris-HCl pH 7.5, 100-400 mM KCl (per row), 2 mM MgCl2, 25 C, IgG immobilized on Protein A; FP: 25 mM Tris-HCl pH 7.5, 100 mM KCl, 2 mM MgCl2, 21 C
[8] = system: J2 IgG LC Y38F, PDB:9OJV_1+PDB:9OJV_2; experiment: BLI steady state; conditions: 100 mM KCl; kinetic Kd 83 ± 14 nM; BLI: 25 mM Tris-HCl pH 7.5, 100-400 mM KCl (per row), 2 mM MgCl2, 25 C, IgG immobilized on Protein A; FP: 25 mM Tris-HCl pH 7.5, 100 mM KCl, 2 mM MgCl2, 21 C
[9] = system: J2 IgG WT, PDB:9OJV_1+PDB:9OJV_2; experiment: BLI steady state; conditions: BLI: 25 mM Tris-HCl pH 7.5, 100-400 mM KCl (per row), 2 mM MgCl2, 25 C, IgG immobilized on Protein A, FP: 25 mM Tris-HCl pH 7.5, 100 mM KCl, 2 mM MgCl2, 21 C
[10] = system: J2 IgG WT, PDB:9OJV_1+PDB:9OJV_2; experiment: FP; conditions: BLI: 25 mM Tris-HCl pH 7.5, 100-400 mM KCl (per row), 2 mM MgCl2, 25 C, IgG immobilized on Protein A; FP: 25 mM Tris-HCl pH 7.5, 100 mM KCl, 2 mM MgCl2, 21 C
[11] = system: J2 IgG WT, PDB:9OJV_1+PDB:9OJV_2; experiment: FP competition; conditions: vs 3'-FAM VA-I RNA; BLI: 25 mM Tris-HCl pH 7.5, 100-400 mM KCl (per row), 2 mM MgCl2, 25 C, IgG immobilized on Protein A; FP: 25 mM Tris-HCl pH 7.5, 100 mM KCl, 2 mM MgCl2, 21 C
[12] = biological target: T1, J2 IgG heavy chain (HC-TEV-His8);J2 IgG light chain (Mus musculus;Mus musculus, UniProt ; ;, |); experiment: BLI; 100 mM KCl; BLI: 25 mM Tris-HCl pH 7.5, 2 mM MgCl2, KCl 100 mM (6-20 bp and mutants), 200 mM (30 bp) or 400 mM (40, 50 bp), 25 C; IgG immobilised on Protein A probes; conditions: protein: recombinant;recombinant; tags: His8 (C-term);; chain copies: 2;2; blunt
[13] = biological target: T1, J2 IgG heavy chain (HC-TEV-His8);J2 IgG …; experiment: BLI; 400 mM KCl; BLI: 25 mM Tris-HCl pH 7.5, 2 mM MgCl2, KCl 100 mM (6-20 bp and mutants), 200 mM (30 bp) or 400 mM (40, 50 bp), 25 C; IgG immobilised on Protein A probes; conditions: protein: recombinant;recombinant, tags: His8 (C-term);, chain copies: 2;2
[14] = biological target: T1, J2 IgG heavy chain (HC-TEV-His8);J2 IgG …; experiment: BLI; 200 mM KCl; BLI: 25 mM Tris-HCl pH 7.5, 2 mM MgCl2, KCl 100 mM (6-20 bp and mutants), 200 mM (30 bp) or 400 mM (40, 50 bp), 25 C; IgG immobilised on Protein A probes; conditions: protein: recombinant;recombinant, tags: His8 (C-term);, chain copies: 2;2

T1 sequence (chain, as listed by the source |, chain 1 of 2): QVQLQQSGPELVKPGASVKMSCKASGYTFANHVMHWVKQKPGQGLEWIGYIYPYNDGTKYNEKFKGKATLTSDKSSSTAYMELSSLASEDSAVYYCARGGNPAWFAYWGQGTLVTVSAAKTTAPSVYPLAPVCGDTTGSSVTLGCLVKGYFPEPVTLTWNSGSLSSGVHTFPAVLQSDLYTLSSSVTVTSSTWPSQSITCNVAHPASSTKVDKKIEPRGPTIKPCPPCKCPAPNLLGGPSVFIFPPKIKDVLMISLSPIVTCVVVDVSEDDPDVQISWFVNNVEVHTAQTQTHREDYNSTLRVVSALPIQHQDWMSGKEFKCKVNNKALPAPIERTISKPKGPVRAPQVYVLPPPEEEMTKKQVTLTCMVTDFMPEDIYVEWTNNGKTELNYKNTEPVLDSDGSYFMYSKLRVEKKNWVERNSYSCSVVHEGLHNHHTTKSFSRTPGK
T1 sequence (chain, as listed by the source |, chain 2 of 2): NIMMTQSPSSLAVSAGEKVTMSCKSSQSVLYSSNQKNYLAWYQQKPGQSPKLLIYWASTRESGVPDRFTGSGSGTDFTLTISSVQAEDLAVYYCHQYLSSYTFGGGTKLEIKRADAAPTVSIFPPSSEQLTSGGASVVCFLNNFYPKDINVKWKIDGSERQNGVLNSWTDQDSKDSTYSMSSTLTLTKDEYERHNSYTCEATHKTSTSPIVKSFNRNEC

Molecule “GUUGUAAAGAAAUAUAGGCU / AGCCUAUAUUUCUUUACAAC [20-bp dsRNA]” has a Kd [1] of 120 nM, a Kd [2] of 430 nM and a Kd [3] of 220 nM. For the same molecule, the Kd [4] was 300 nM, the Kd [5] was 710 nM and the Kd [6] was 940 nM. It also gave a Kd [7] of 360 nM, a Kd [8] of 150 nM and a Kd ([9]; 100 mM KCl, kinetic Kd 150 ± 80 nM) of 120 nM.

Molecule “GUUGUAAAGAAGGU / ACCUUCUUUACAAC [14-bp dsRNA]” has a Kd ([9]; 100 mM KCl, kinetic Kd 1400 ± 800 nM) of 2100 nM.

With “GUUGUAAAGAAAUAUAACAGGCUUGUACCA / UGGUACAAGCCUGUUAUAUUUCUUUACAAC [30-bp dsRNA]” the Kd ([9]; 200 mM KCl, kinetic Kd 37 ± 7 nM) was 47 nM.

3'-FAM Adenovirus VA-I RNA showed a Kd [10] of 32 nM.

In the case of “GUUGUAAAGAAAUAUAACAGGCUUGUACCAUUGAUGGAAAAGAACAACGU / ACGUUGUUCUUUUCCAUCAAUGGUACAAGCCUGUUAUAUUUCUUUACAAC [50-bp dsRNA]”, the IC50 [11] is reported as 17 nM and the Kd [9] is reported as 22 nM.

“GUUGUAAAGAAAUAUAACAGGCUUGUACCAUUGAUGGAAA / UUUCCAUCAAUGGUACAAGCCUGUUAUAUUUCUUUACAAC [40-bp dsRNA]” showed a Kd ([9]; 400 mM KCl, kinetic Kd 33 ± 6 nM) of 80 nM.

B1: 6-bp dsRNA (dsRNA)
RNA 1: GUUGUA
RNA 2: UACAAC
B1: no binding [12].

B2: 40-bp AU-dinucleotide dsRNA (dsRNA)
RNA 1: AUAUAUAUAUAUAUAUAUAUAUAUAUAUAUAUAUAUAUAU
RNA 2: AUAUAUAUAUAUAUAUAUAUAUAUAUAUAUAUAUAUAUAU
B2 was tested, and the Kd [13] was 91 ± 11 nM.

B3: 14-bp dsRNA (dsRNA)
RNA 1: GUUGUAAAGAAGGU
RNA 2: ACCUUCUUUACAAC
Work on B3 yielded a Kd [12] of 2100 ± 600 nM.

B4: 40-bp dsRNA (dsRNA)
RNA 1: GUUGUAAAGAAGGUCAAUAUUGUACCAAACUUGAUGGAAA
RNA 2: UUUCCAUCAAGUUUGGUACAAUAUUGACCUUCUUUACAAC
With B4 the Kd ([13]; blunt) was 80 ± 15 nM.

B5: 50-bp dsRNA (dsRNA)
RNA 1: GUUGUAAAGAAGGUCAAUAUUGUACCAAACUUGAUGGAAAAGAACAACGU
RNA 2: ACGUUGUUCUUUUCCAUCAAGUUUGGUACAAUAUUGACCUUCUUUACAAC
With B5 the Kd ([13]; blunt) was 22 ± 8 nM.

B6: 30-bp dsRNA 0% GC (dsRNA)
RNA 1: AUUAUAAAUAAUUUAAAUAUUAUAUUAAAU
RNA 2: AUUUAAUAUAAUAUUUAAAUUAUUUAUAAU
B6 showed a Kd [14] of 290 ± 60 nM.

B7: 30-bp dsRNA 3% GC (dsRNA)
RNA 1: AUUAUAAAUAAUUUCAAUAUUAUAUUAAAU
RNA 2: AUUUAAUAUAAUAUUGAAAUUAUUUAUAAU
B7 showed a Kd [14] of 220 ± 90 nM.

B8: 30-bp dsRNA 17% GC (dsRNA)
RNA 1: GUUGUAAAUAAGUUCAAUAUUAUACUAAAU
RNA 2: AUUUAGUAUAAUAUUGAACUUAUUUACAAC
B8 showed a Kd ([14]; blunt) of 36 ± 22 nM.

B9: 30-bp dsRNA 47% GC (dsRNA)
RNA 1: GUUGUCCAGAAGGUCAAUAGCGUACCAAAC
RNA 2: GUUUGGUACGCUAUUGACCUUCUGGACAAC
Work on B9 yielded a Kd ([14]; blunt) of 110 ± 20 nM.
